Here are results for three substances from patent US20260263521A1, “ANTI-CD200R1 ANTIBODY AND USE THEREOF” (AIMED BIO INC., priority 2023, published 2026).

The target in assay [1] is human CD200R1 expressed on cells (Jurkat-CD200R1, U937-CD200R1, HH cells) (human) (UniProt Q8TD46). Put plainly: cell-based or functional assay.
Assay [2] has the same target. Put plainly: flow cytometry, HH cells; drawn table, row EC50.
Assay [3] has the same target. Put plainly: flow cytometry, HH cells; drawn table. On the technique in general: Flow cytometry measures light scatter and fluorescence of single cells or particles in a stream.

The term EC50 denotes the concentration giving half of the maximal effect.

Sequence of human CD200R1 expressed on cells (Jurkat-CD200R1, U937-CD200R1, HH cells) (human) (Q8TD46 25-348): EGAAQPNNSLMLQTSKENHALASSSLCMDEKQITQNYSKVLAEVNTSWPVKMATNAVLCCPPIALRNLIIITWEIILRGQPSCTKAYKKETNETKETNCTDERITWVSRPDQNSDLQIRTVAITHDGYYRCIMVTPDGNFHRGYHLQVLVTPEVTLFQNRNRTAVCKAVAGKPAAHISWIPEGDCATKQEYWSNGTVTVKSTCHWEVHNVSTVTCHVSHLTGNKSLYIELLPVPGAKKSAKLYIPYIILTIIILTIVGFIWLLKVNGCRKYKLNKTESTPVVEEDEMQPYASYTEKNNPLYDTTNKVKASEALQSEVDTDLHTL

In assay [1], “hIgG4 kappa isotype control (Crownvivo, #C0004) (antibody)” showed an IL-6 (pg/ml) at log [Ab] (M) -7, LPS-treated U937-CD200R1 cells of 3510 pg/ml and a TNF-α (pg/ml) at log [Ab] (M) -7, LPS-treated U937-CD200R1 cells of 5090 pg/ml.
With IgG1 (antibody), the EC50 in assay [2] was found to be 815 nM. In addition, in assay [3], the Geo mean (%) at 0.05 nM amounted to 0.8%, the Geo mean (%) at 0.19 nM was found to be 0.8%, the Geo mean (%) at 0.78 nM stood at 0.8% and the Geo mean (%) at 3.125 nM came out at 0.8%. Moreover, in assay [3], the Geo mean (%) at 12.5 nM came out at 0.8%, the Geo mean (%) at 50 nM was found to be 1%, the Geo mean (%) at 200 nM was 1.9% and the Geo mean (%) at 800 nM was 3.5%.
For the substance “LY3454738 (US 2020/0087395, I-4P, Eli Lilly) (antibody)”, in assay [1], the EC50 (nM), degree of signal transduction by the Dok2 protein was > 10000 nM; the IC50 (nM) of IL-6 inhibition, LPS-treated U937-CD200R1 cells was determined as 1.72 nM; the IC50 (nM) of TNF-α inhibition, LPS-treated U937-CD200R1 cells is 6.03 nM; the IL-6 (pg/ml) at log [Ab] (M) -7, LPS-treated U937-CD200R1 cells came out at 523 pg/ml. In assay [1], this substance displayed an IL-6 (pg/ml) at log [Ab] (M) -8, LPS-treated U937-CD200R1 cells of 1330 pg/ml; an IL-6 (pg/ml) at log [Ab] (M) -9, LPS-treated U937-CD200R1 cells of 2670 pg/ml; an IL-6 (pg/ml) at log [Ab] (M) -10, LPS-treated U937-CD200R1 cells of 3380 pg/ml; an IL-6 (pg/ml) at log [Ab] (M) -11, LPS-treated U937-CD200R1 cells of 3550 pg/ml. In assay [1], this substance yielded an IL-6 (pg/ml) at log [Ab] (M) -12, LPS-treated U937-CD200R1 cells of 4530 pg/ml; an RLU (a.u.), phosphorylated Dok2 reporter, antibody dose 0.05 nM of 9260 a.u; an RLU (a.u.), phosphorylated Dok2 reporter, antibody dose 0.10 nM of 8400 a.u; an RLU (a.u.), phosphorylated Dok2 reporter, antibody dose 0.20 nM of 8000 a.u. Further, in assay [1], the RLU (a.u.), phosphorylated Dok2 reporter, antibody dose 0.39 nM was found to be 8960 a.u; the RLU (a.u.), phosphorylated Dok2 reporter, antibody dose 0.78 nM was found to be 8900 a.u; the RLU (a.u.), phosphorylated Dok2 reporter, antibody dose 1.56 nM amounted to 9100 a.u; the RLU (a.u.), phosphorylated Dok2 reporter, antibody dose 3.13 nM is 9470 a.u. In assay [1], the RLU (a.u.), phosphorylated Dok2 reporter, antibody dose 6.25 nM was 8930 a.u; the RLU (a.u.), phosphorylated Dok2 reporter, antibody dose 12.5 nM was found to be 13000 a.u; the RLU (a.u.), phosphorylated Dok2 reporter, antibody dose 25 nM stood at 22700 a.u; the RLU (a.u.), phosphorylated Dok2 reporter, antibody dose 50 nM is 25600 a.u. In assay [1], this substance registered a TNF-α (pg/ml) at log [Ab] (M) -7, LPS-treated U937-CD200R1 cells of 472 pg/ml; a TNF-α (pg/ml) at log [Ab] (M) -8, LPS-treated U937-CD200R1 cells of 1040 pg/ml; a TNF-α (pg/ml) at log [Ab] (M) -9, LPS-treated U937-CD200R1 cells of 1480 pg/ml; a TNF-α (pg/ml) at log [Ab] (M) -10, LPS-treated U937-CD200R1 cells of 3760 pg/ml. In assay [1], this substance had a TNF-α (pg/ml) at log [Ab] (M) -11, LPS-treated U937-CD200R1 cells of 4950 pg/ml and a TNF-α (pg/ml) at log [Ab] (M) -12, LPS-treated U937-CD200R1 cells of 5490 pg/ml.
